Assay results: patent publication WO2022065344A1 (dated 2022)

Key:
[1] = target: T1, gp46 partial peptide 188-199 with L191 replaced by Ala (HTLV-1); assay: ELISA on Ala-substituted gp46 188-199 peptides
T1 peptide: PPLAPHSNLDHI

[2] = target: T2, gp46 partial peptide 188-199 with P192 replaced by Ala (HTLV-1); assay: ELISA on Ala-substituted gp46 188-199 peptides
T2 peptide: PPLLAHSNLDHI

[3] = target: T3, gp46 partial peptide 188-199 with L196 replaced by Ala (HTLV-1); assay: ELISA on Ala-substituted gp46 188-199 peptides
T3 peptide: PPLLPHSNADHI

[4] = target: T4, gp46 partial peptide 188-199 with N195 replaced by Ala (HTLV-1); assay: ELISA on Ala-substituted gp46 188-199 peptides
T4 peptide: PPLLPHSALDHI

[5] = target: T5, gp46 partial peptide 188-199 with H193 replaced by Ala (HTLV-1); assay: ELISA on Ala-substituted gp46 188-199 peptides
T5 peptide: PPLLPASNLDHI

[6] = target: T6, gp46 partial peptide 188-199 with S194 replaced by Ala (HTLV-1); assay: ELISA on Ala-substituted gp46 188-199 peptides
T6 peptide: PPLLPHANLDHI

[7] = target: T7, HTLV-1 envelope protein gp62 extracellular region (gp46), expressed in 293T cells together with GLUT1 (HTLV-1, UniProt P03381 21-312); assay: flow cytometry on 293T cells transfected with HTLV-1 and GLUT1 vectors against pcDNA3.1 control cells
T7 construct: also called HTLV-1-expressing cells; gp62-expressing cells
T7 sequence: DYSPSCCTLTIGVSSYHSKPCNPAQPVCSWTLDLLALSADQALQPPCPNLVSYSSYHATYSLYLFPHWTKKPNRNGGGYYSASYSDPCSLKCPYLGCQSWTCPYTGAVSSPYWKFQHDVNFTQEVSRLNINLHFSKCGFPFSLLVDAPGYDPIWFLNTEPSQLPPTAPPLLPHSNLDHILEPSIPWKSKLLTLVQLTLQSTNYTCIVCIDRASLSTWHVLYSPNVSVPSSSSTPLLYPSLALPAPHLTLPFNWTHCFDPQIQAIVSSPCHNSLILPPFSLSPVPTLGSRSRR

[8] = target: T8, HTLV-1 gp46 peptide 180-204 (HTLV-1); assay: SPR, Biacore T200, antibody amine-coupled on CM5 chip, peptide as analyte, affinity (steady-state) analysis
T8 construct: also called HTLV-1 gp46 peptide 180 to 204; gp46 antigen peptide
T8 peptide: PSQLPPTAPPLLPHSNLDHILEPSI

B1: humanized anti-HTLV-1 antibody hMAb1_H1L12 (antibody, human IgG1, kappa, V domains shown)
VH: EVQLVESGGGLVQPGGSLRLSCAASGFTFGGFPMAWVRQAPGKGLEWVSTISPGAVNTYYADSVKGRFTISRDNSKNTLYLQMNSLRAEDTAVYYCAREGYGFSSFEYWGQGTLVTVSS
VL: DIQMTQSPSSLSASVGDRVTITCKSSQTLLYSGNQKNYLAWYQQKPGKAPKLLISWASTRQSGVPSRFSGSGSGTDFTLTISSLQPEDFATYYCQQYFATPITFGQGTKVEIKR
notes: Human IgG1, kappa
binding result [1]: binds
binding result [2]: binds
binding result [3]: binds
binding result [4]: binds
binding result [5]: binds
binding result [6]: binds

B2: rat anti-HTLV-1 monoclonal antibody rMAb98 (antibody, V domains shown)
VH: EVQLVESGGGLVQPGWSMKLSCAASGFTFSGSPMGWVRQAPTKGLEWVATISPTGATTYYRDSVKGRFTISRDNAKATLYLQMNSLRSEDTATYYCTREGYGYSSFDYWGQGVMVTVSS
VL: DIVMTQSPSSLAVSAGETVTINCKSSQSLLFSGYQKNYLAWYQQKPGQSPRLLIYWASTRQSGVPDRFIGSGSGTDFTLTVSSVQAEDVATYYCQQYFDTPLTFGSGTKLEIKR
binding result [7]: binds

B3: rat anti-HTLV-1 monoclonal antibody rMAb1 (antibody, V domains shown)
VH: EIQLVESGGGLVQPGRSMKLSCEALGFTFGGFPMAWVRQAPTKGLEWVATISPGAVNTYYGDSVKGRFTISRDNAKSTLYLQMNSLRSEDTATYYCVREGYGFSSFEYWGQGVTVTVSP
VL: DIVMTQSPSSLAVSAGETVTIKCKSSQTLLYSGNQKNYLAWYQQKPGQSPKLLICWASTRQSSVPDRFIGSGSGTDFTLTISSVQAEDLAIYYCQQYFATPITFGSGTKLEIKR
binding result [1]: binds
binding result [2]: binds
binding result [3]: binds
binding result [4]: binds
binding result [5]: binds
binding result [6]: binds
binding result [7]: binds
Kd [8]: 3.49 nM
